Paper PMC9512702
Values joined by “and” are separate entries in the source; they are usually repeats but may differ in a detail not shown here. Identical values can stand only once.

Columns and labels:
[1] = target: SIH-11; assay: AUC
[2] = target: mammalian expressed RBD (mRBD) of SARS-CoV-2 spike (SARS-CoV-2), P0DTC2; assay: SPR
[3] = target: SIH-7; assay: AUC
[4] = target: SIH-13; assay: AUC

B1: SIH-11 (designed binder)
chain: DKEWILQKIYEIMRLLDELADAEASMRVSDLIYEFMKK
modifications: not checked
stoichiometry N [1]: 3.2 | Kd [2]: 1.3 nM

B2: SIH-7 (designed binder)
chain: DKEWILQKIFEIMRLLDELADAEASMRVSDLIYEFMKK
modifications: not checked
stoichiometry N [3]: 4.1 and 7.9 | Kd [2]: 2.9 nM

B3: SIH-13 (designed binder)
chain: DKEWILQKIFEIMRLLDELADAEASMRVSDLIYEFMKK
modifications: not checked
stoichiometry N [4]: 9.5 and 17.7 | Kd [2]: 1.6 nM
